Data reported in article PMC9484695, “The evolutionary conserved proteins CEP90, FOPNL, and OFD1 recruit centriolar distal appendage proteins to initiate their assembly” (PLoS Biology, 2022).

T1: CEP90 (overexpressed) (UniProt Q8WXW3 1-757)
T1 construct: CEP90 (PIBF1), cDNA clone from Dharmacon horizondiscovery; no tag is named; also called overexpressed CEP90; source: U2OS, transfected (lipofectamine 2000), in cells
T1 sequence (looked up): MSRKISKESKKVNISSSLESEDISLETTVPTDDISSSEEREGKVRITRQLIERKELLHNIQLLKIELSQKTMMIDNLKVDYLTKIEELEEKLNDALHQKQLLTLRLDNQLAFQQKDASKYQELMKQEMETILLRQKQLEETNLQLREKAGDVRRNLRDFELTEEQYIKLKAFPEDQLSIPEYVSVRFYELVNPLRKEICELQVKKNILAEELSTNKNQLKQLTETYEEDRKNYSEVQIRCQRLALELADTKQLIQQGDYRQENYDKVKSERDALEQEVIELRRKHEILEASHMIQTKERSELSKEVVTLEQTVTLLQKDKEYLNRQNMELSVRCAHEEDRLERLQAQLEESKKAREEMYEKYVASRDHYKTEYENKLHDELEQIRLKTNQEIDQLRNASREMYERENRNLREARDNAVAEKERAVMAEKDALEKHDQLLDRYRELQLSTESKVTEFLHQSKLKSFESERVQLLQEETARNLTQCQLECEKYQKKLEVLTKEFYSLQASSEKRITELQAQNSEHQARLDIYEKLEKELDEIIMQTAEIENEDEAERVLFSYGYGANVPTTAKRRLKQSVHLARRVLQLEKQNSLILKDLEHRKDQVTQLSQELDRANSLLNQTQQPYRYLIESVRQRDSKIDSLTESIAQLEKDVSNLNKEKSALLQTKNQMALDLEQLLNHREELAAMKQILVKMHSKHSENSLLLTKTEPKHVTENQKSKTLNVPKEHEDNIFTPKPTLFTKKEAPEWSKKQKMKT


Biological target: T1, CEP90 (overexpressed)
Assay: microtubule recruitment (displacement) assay; U2OS cotransfected with MNR-GFP and CEP90, OFD1 mCherry or myc-FOPNL, 24 h; endogenous OFD1, CEP90, CEP83, CEP89, CEP164 stained; percent of cells with the endogenous protein on microtubules, 100 < N < 150 cells per condition, 3 experiments
Conditions: partners not purified

Row | percent of cells with the endogenous protein on microtubules | Binder
1 | 66.7% | CEP83 (endogenous) (natural protein, human (endogenous in U2OS), UniProt Q9Y592 1-701, looked up, CEP83, endogenous human protein; also called endogenous CEP83; source: endogenous, U2OS cells) MVVSTFTDMDTFPNNFPPGGDSGLTGSQSEFQKMLIDERLRCEHHKANYQTLKAEHTRLQNEHVKLQNELKHLFNEKQTQQEKLQLLLEELRGELVEKTKDLEEMKLQILTPQKLELLRAQIQQELETPMRERFRNLDEEVEKYRAVYNKLRYEHTFLKSEFEHQKEEYARILDEGKIKYESEIARLEEDKEELRNQLLNVDLTKDSKRVEQLAREKVYLCQKLKGLEAEVAELKAEKENSEAQVENAQRIQVRQLAEMQATVRSLEAEKQSANLRAERLEKELQSSSEQNTFLINKLHKAEREINTLSSKVKELKHSNKLEITDIKLETARAKSELERERNKIQSELDGLQSDNEILKAAVEHHKVLLVEKDRELIRKVQAAKEEGYQKLVVLQDEKLELENRLADLEKMKVEHDVWRQSEKDQYEEKLRASQMAEEITRKELQSVRLKLQQQIVTIENAEKEKNENSDLKQQISSLQIQVTSLAQSENDLLNSNQMLKEMVERLKQECRNFRSQAEKAQLEAEKTLEEKQIQWLEEKHKLHERITDREEKYNQAKEKLQRAAIAQKKRKSLHENKLKRLQEKVEVLEAKKEELETENQVLNRQNVPFEDYTRLQKRLKDIQRRHNEFRSLILVPNMPPTASINPVSFQSSAMVPSMELPFPPHMQEEQHQRELSLLRKRLEELETTQRKQLEELGSSGE
2 | 63.3% | OFD1 (endogenous) (natural protein, UniProt O75665 1-1012, looked up, OFD1, endogenous human protein; source: endogenous: HEK293 Flp-In cells (BioID); Hela Kyoto lysate (co-IP); U2OS cells (microtubule recruitment assay)) MMAQSNMFTVADVLSQDELRKKLYQTFKDRGILDTLKTQLRNQLIHELMHPVLSGELQPRSISVEGSSLLIGASNSLVADHLQRCGYEYSLSVFFPESGLAKEKVFTMQDLLQLIKINPTSSLYKSLVSGSDKENQKGFLMHFLKELAEYHQAKESCNMETQTSSTFNRDSLAEKLQLIDDQFADAYPQRIKFESLEIKLNEYKREIEEQLRAEMCQKLKFFKDTEIAKIKMEAKKKYEKELTMFQNDFEKACQAKSEALVLREKSTLERIHKHQEIETKEIYAQRQLLLKDMDLLRGREAELKQRVEAFELNQKLQEEKHKSITEALRRQEQNIKSFEETYDRKLKNELLKYQLELKDDYIIRTNRLIEDERKNKEKAVHLQEELIAINSKKEELNQSVNRVKELELELESVKAQSLAITKQNHMLNEKVKEMSDYSLLKEEKLELLAQNKLLKQQLEESRNENLRLLNRLAQPAPELAVFQKELRKAEKAIVVEHEEFESCRQALHKQLQDEIEHSAQLKAQILGYKASVKSLTTQVADLKLQLKQTQTALENEVYCNPKQSVIDRSVNGLINGNVVPCNGEISGDFLNNPFKQENVLARMVASRITNYPTAWVEGSSPDSDLEFVANTKARVKELQQEAERLEKAFRSYHRRVIKNSAKSPLAAKSPPSLHLLEAFKNITSSSPERHIFGEDRVVSEQPQVGTLEERNDVVEALTGSAASRLRGGTSSRRLSSTPLPKAKRSLESEMYLEGLGRSHIASPSPCPDRMPLPSPTESRHSLSIPPVSSPPEQKVGLYRRQTELQDKSEFSDVDKLAFKDNEEFESSFESAGNMPRQLEMGGLSPAGDMSHVDAAAAAVPLSYQHPSVDQKQIEEQKEEEKIREQQVKERRQREERRQSNLQEVLERERRELEKLYQERKMIEESLKIKIKKELEMENELEMSNQEIKDKSAHSENPLEKYMKIIQQEQDQESADKSSKKMVQEGSLVDTLQSSDKVESLTGFSHEELDDSW
